The labels stand for the following.
B2: GST-MmCheFCTD (domain or fragment)
chain: IKSLLPKSEDDLDSEMAVESWSGDKLKNEVEQLAPEEQEILTAIYTGITSLELPGMMGMDIDEVEKVLEKLIDQGFLDLVRIRKETDLTEKGRAVTNFIITNF
B3: Methanococcus maripaludis CheY, activated with BeF3- (phosphorylated state mimicked) (natural protein, UniProt Q6LYQ5 1-123, looked up)
chain: MASIVKTMIVDDSAFMRNILKRILSTTNKYVVIGEAANGADAIKMAEELQPDLISMDIVMPETDGITATKAIKEKTPEIKIVMCTSVDQEQKMIDAVNAGADGYIVKPFQAPKILEQFNKLFP
modifications: BeF3- phosphomimic (2 mM BeF2 and 20 mM NaF in the buffer); phosphorylation site D57
notes: CheY of Methanococcus maripaludis; The same protein as m10, in buffer with 2 mM BeF2, 20 mM NaF and 20 mM MgCl2; also called CheY-P; source: E. coli BL21 (DE3), purified (Ni-NTA, SEC)

Experiment [1] deals with Methanococcus maripaludis CheF (Methanococcus maripaludis). Description: mass photometry; OneMP mass photometer; protein stocks diluted in HEPES buffer; typical working concentrations of MmCheF 25–50 nM.
The target in experiment [2] is FliM FliMN peptide (UniProt P06974). The following applies: cited from earlier work.
In experiment [3] the target is Thermococcus kodakarensis CheF (Thermococcus kodakarensis). The experiment is described as follows: mass photometry; OneMP mass photometer; protein stocks diluted in HEPES buffer; typical working concentrations of MmCheF 25–50 nM.
Experiment [4] deals with FliM 1-249 (Thermotoga maritima) (UniProt Q9WZE6). The following applies: cited from earlier work.
Experiment [5] deals with Pyrococcus horikoshii CheF (Pyrococcus horikoshii). The experiment is described as follows: mass photometry; OneMP mass photometer; protein stocks diluted in HEPES buffer; typical working concentrations of MmCheF 25–50 nM.
The target of experiment [6] is B2. The description is as above. The note with it: both partners purified.
In experiment [7] the target is B3. Description: ITC; GST-MmCheFCTD (25 µM) in the sample cell, titrated with MmCheY; 25 °C; 20 mM HEPES-Na pH 7.5, 200 mM NaCl, 20 mM KCl, 20 mM MgCl2, 20 mM NaF, 2 mM BeF2. The following applies: both partners purified. (In ITC the heat of successive injections is recorded.)
The target of experiment [8] is B2. The experiment is described as above. The note with it: both partners purified.

Values joined by “and” are separate entries in the source; they are usually repeats but may differ in a detail not shown here. Equal entries are not always repeated.

As usually defined, the stoichiometry N is a count of units in the complex or per binding partner. One may read the Kd as the equilibrium constant for the complex coming apart.

FliM 1-249 (Thermotoga maritima), sequence (Q9WZE6 1-249): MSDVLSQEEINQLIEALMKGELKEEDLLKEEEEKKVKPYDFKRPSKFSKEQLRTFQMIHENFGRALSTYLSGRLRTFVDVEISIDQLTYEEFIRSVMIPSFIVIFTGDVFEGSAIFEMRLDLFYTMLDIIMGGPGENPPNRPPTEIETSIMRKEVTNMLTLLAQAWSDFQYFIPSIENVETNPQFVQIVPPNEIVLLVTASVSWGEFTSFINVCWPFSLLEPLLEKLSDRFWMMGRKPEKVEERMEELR

As for “Methanococcus maripaludis CheF (natural protein)”, the stoichiometry N in experiment [1] stood at 2.

For the molecule CheY (from UniProt P0AE67), the Kd in experiment [2] was 27 µM.

With “Thermococcus kodakarensis CheF (natural protein)”, the stoichiometry N in experiment [3] came to 2.

As for CheY (from UniProt Q56312), the Kd in experiment [4] is 39 nM.

In experiment [5], “Pyrococcus horikoshii CheF (natural protein)” showed a percent of observations in the dimer species of 89% and a stoichiometry N of 2.

B1: GST-MmCheFCTD (domain or fragment)
chain: IKSLLPKSEDDLDSEMAVESWSGDKLKNEVEQLAPEEQEILTAIYTGITSLELPGMMGMDIDEVEKVLEKLIDQGFLDLVRIRKETDLTEKGRAVTNFIITNF
modifications: GST carrier left out; limits taken as the C-terminal 103 residues (246-348, F348 terminal) used in the CheY:CheFCTD fusion, exact limits are in Fig. S3a; fusion is mainly a dimer by mass photometry /
For the molecule B1, the “stoichiometry N” value in experiment [6] was 2 and 4.

B2 showed a Kd in experiment [7] of 1240 ± 414 nM.

Take B3: the “stoichiometry N” value in experiment [8] amounted to 1.

(Values after article PMC9126983, “Structural insights into the mechanism of archaellar rotational switching” (Nature Communications, 2022).)
